In the supplement of paper PMC12042874:
± gives the uncertainty stated by the source.

Assay: amyloid nucleation score (Sup35N fusion, yeast selection) (log enrichment); library NNK1; higher = more nucleation; inactive = no reads after selection
How it was run: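 Sup35N was fused to peptides of 20 random codons and expressed in psi-negative yeast, which were induced with 100 μM copper sulfate for 24 hours and then grown on medium lacking adenine and uracil for 7 days at 30°C. Plasmid inserts from input and output were sequenced on Illumina. The nucleation score is the DiMSum log enrichment of output over input reads, centred on the mode score of non-aggregating sequences. Sequences with under 100 input reads were left out, and random libraries had three technical output replicates.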

Substance	amyloid nucleation score
TRVSFYRSKFAFMFYYHVMV	0.099 ± 0.79
HHGSCFEGLFCSETFCLAIM	6.495 ± 0.055
YCLSYEDCYWYVSVSLRYLW	-0.477 ± 0.31
LFSNPFRQAWH	-0.445 ± 0.71
WVSSEWISTC	-0.268 ± 1.4
WQKSWR	5.24 ± 0.074
IKVAN	1.1 ± 0.47
RLWYGRSPWELVTIRSQARG	0.14 ± 0.31
FFNYRVMKRHYSVYLCVGSM	1.18 ± 0.14
LNKVWFSWSRDKVRYTGMLV	-0.857 ± 0.48
TKLSPFNIGLRCRYHNLALN	-1.52 ± 0.45
RSPRGSVFHMFI	0.176 ± 1.6
FAWGGFC	-0.155 ± 0.86
KKFFRVLLSLSSMLVLCCFQ	-0.317 ± 1.4
NLTRHVDVANPAPRLPHLGV	-0.146 ± 0.46
SYRGWADADNLVLYPQNASV	0.021 ± 0.97
RIDDSIFLDFWM	-0.214 ± 0.4
VFWWT	-0.575 ± 0.29
ECKWSLKNHYWVYDGLRGGT	-0.378 ± 0.78
FYQTS	0.634 ± 0.4
GLVNFTVVLTFV	2.82 ± 0.3
IGFRPGRNSVWLMSRDLNFW	-1.11 ± 1.4
VSTILYFDFVSVLPSALIEK	3.23 ± 0.18
LEPNCVLSYTDSFVNQFVTL	0.119 ± 0.3
SQINWILYTSNFTLW	-1.02 ± 1.7
DMLSEIFGSSPNEYAPH	0.521 ± 0.29

Substance	amyloid nucleation score
TDRTQTYSTFASRGSDVTVT	0.185 ± 0.35
LDHGEFTKYFRLTRCVSTCC	-0.339 ± 0.97
VSPRFGLSSMGNYQKVLVYI	-0.651 ± 1.7
TALSFRYVYLI	-0.612 ± 0.61
WLGRYQLLWLALGWIITRRG	1.51 ± 0.47
YLNYWFR	-0.341 ± 0.28
ISCWRNYLDLSSLYLFALFI	2.53 ± 0.077
GHRVAGCFSMSGVG	1.25 ± 0.44
RAPLLMSVTLLRHQFCTRME	1.8 ± 0.21
SKLIHYTSFLDYASSGEWKW	2.81 ± 0.17
APEVNRLTCSYRSDRLKTS	0.095 ± 0.83
CMILFTNRQRVMRLVLCLSD	0.044 ± 0.49
FINWLPNNDHFFCRNWICLQ	5.902 ± 0.05
YSRIARLDVKRVGHEPDVRL	-0.921 ± 2.4
DWRNAFLLCYANRNVQTCMS	-0.673 ± 0.3
DFRKDWYWESPASRFFTNEV	0.44 ± 0.53
YVRGSGMAPGD	inactive
EDVAYYGNGFRLTYDRQITL	-0.733 ± 0.67
SDFAYCRCNLSVYRGMILTQ	0.064 ± 0.25
GCAQRKVAPWNRGLRQ	-0.501 ± 0.62
VCCSATISTIVFSYFYTGKR	7.506 ± 0.053
RGICWWLNIHWGKAMDMLGP	0.428 ± 0.97
KDARLHFSWRL	0.933 ± 0.6
TYMTSTMQLRHTFFRSQANL	2.7 ± 0.098
IMVVFGITCVPASGNFLQGW	inactive
WRESSWLCMWERNVKVDWGR	-0.87 ± 1.7

Substance	amyloid nucleation score
CGDKNILTRIWLERVSVLAS	0.056 ± 0.33
CHLNFMCWPTAQDENMPIFG	-0.09 ± 0.31
AVVAIYSQILRNGSVLSWFP	0.242 ± 0.51
RAVGDM	-0.241 ± 0.52
RVISPSCKWDQCSPMCS	-0.499 ± 1.1
PLAHLSRLEESYWPSQTHPS	0.091 ± 0.54
LVSGRRGRRESSNHMVGLLE	0.968 ± 0.51
TDGIGYLGTWMWLWRGDGVR	1.78 ± 0.53
FERSW	inactive
GLAASHSTSCSSYMISCWSR	-0.055 ± 0.55
SGRGWEAYIYCWVRLVRLVW	-0.463 ± 0.35
FLIFKSCLVGILRSSNKIGC	-0.469 ± 1.1
DCFYLSIGRIFFHP	2.92 ± 0.21
TWNTL	-0.343 ± 0.4
HSRLLASYS	1.34 ± 0.43
LLKSKRL	0.563 ± 0.43
NTCHKIDSTI	-0.13 ± 0.59
DSLSNLCDFCSSK	0.668 ± 0.5
YRMSRLFTVVGAPVGSSLNF	-1.58 ± 2.4
LITWCIVVAWCIIVTREA	2.84 ± 0.12
MFSQLGVYISCFLSSSVDVE	0.317 ± 0.48
PRRQETWANEGHGM	0.426 ± 0.93
RRNVWASVTGGELWKGDLSR	-0.498 ± 1.1
SSRSGPPCACRTRKLACGMM	0.145 ± 0.47
SNFLFRCSIWDDMGGKCRSK	inactive
